Substitutions are numbered along the chain they refer to.
B1: cCl1-1 (antibody, V domains shown)
VH: QIQLVQSGPELKKPGESVKISCKASGYTFTDYAMHWVKQAPGKGLKWMGWINTYTGKPTYADDFKGRFVFSLEASASTANLQISNLKNEDTATYFCARAVFYGYTMDAWGQGTSVTVSS
VL: DIQMTQSPASLSASLGETISIACRASEDIYSNLAWYQQKSGKSPQLLIFSVKRLQDGVPSRFSGSGSGTQYSLKISGMQPEDEGDYFCLQGSNFPLTFGSGTKLEIK
notes: Chimeric antibody from rat hybridoma, detected with anti-human IgG
B2: cCl1-3 (antibody, V domains shown)
VH: B1 VH with H35Y, A40V, K46R
VL: B1 VL with A25T, S50A, V51I, N93K
notes: as for B1
B3: cCl1-2 (antibody, V domains shown)
VH: B1 VH with A24T, A40G, L45M, T53A, F70L, F101Y, T116I
VL: B1 VL with A22E, A25T, L33F, Y36F, F49Y, K52N, N93K
notes: as for B1
B4: hCL1a-LC-G2-PNU (antibody, human IgG1, kappa)
heavy: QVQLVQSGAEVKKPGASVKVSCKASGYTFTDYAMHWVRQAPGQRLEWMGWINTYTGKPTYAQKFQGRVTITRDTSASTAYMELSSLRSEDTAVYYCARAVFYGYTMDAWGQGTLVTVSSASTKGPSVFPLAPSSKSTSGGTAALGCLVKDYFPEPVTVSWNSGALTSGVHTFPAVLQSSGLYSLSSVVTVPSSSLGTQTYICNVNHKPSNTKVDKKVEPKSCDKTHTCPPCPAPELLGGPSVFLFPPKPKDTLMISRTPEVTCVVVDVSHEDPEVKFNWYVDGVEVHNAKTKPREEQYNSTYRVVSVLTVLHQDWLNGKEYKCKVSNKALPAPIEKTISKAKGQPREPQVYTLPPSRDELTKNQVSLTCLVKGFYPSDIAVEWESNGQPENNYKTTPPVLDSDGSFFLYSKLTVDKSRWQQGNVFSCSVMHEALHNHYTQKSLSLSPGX
light: DIQMTQSPSSLSASVGDRVTITCRASEDIYSNLAWYQQKPGKAPKLLIFSVKRLQDGVPSRFSGSGSGTDFTLTISSLQPEDFATYYCLQGSNFPLTFGQGTKVEIKRTVAAPSVFIFPPSDEQLKSGTASVVCLLNNFYPREAKVQWKVDNALQSGNSQESVTEQDSKDSTYSLSSTLTLSKADYEKHKVYACEVTHQGLSSPVTKSFNRGECGGGGSLPQTGG
modifications: PNU-159682 linked through ethylenediamine to the C-terminal Gly of the GGGGSLPQTGG tag
B5: hCL1c-LC-G2-PNU (antibody, human IgG1, kappa)
heavy: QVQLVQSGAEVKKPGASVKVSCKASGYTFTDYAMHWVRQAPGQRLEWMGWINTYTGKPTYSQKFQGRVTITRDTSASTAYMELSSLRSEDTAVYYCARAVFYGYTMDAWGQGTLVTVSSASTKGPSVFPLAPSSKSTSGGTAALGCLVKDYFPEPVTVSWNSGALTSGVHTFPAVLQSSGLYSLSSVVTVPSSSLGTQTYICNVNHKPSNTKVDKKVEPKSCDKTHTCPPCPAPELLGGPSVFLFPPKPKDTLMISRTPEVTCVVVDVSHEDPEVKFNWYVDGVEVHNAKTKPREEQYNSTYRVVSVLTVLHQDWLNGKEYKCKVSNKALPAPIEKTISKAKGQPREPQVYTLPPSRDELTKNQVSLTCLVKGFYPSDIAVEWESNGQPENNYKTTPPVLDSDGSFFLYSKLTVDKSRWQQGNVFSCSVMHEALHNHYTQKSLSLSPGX
light: B4 light with A25T, S50A, V51I, N93K
modifications: PNU-159682 linked through ethylenediamine to the C-terminal Gly of the GGGGSLPQTGG tag
B6: hCL1d-LC-G2-PNU (antibody, human IgG1, kappa)
heavy: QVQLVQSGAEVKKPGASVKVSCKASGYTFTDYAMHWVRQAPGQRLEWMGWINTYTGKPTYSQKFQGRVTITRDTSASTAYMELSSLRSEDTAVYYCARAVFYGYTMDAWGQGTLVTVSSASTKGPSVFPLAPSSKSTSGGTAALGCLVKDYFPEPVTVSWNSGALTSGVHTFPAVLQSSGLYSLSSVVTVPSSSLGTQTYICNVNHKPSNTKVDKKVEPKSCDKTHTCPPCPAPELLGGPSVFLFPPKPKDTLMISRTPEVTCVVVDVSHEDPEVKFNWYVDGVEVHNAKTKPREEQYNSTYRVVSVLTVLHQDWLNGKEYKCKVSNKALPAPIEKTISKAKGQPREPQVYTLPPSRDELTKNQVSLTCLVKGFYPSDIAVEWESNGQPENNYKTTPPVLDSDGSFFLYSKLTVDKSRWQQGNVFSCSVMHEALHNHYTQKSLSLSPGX
light: B4 light with A25T, L33F, F49Y, K52N, N93K
modifications: PNU-159682 linked through ethylenediamine to the C-terminal Gly of the GGGGSLPQTGG tag
B7: hCL1e-LC-G2-PNU (antibody, human IgG1, kappa)
heavy: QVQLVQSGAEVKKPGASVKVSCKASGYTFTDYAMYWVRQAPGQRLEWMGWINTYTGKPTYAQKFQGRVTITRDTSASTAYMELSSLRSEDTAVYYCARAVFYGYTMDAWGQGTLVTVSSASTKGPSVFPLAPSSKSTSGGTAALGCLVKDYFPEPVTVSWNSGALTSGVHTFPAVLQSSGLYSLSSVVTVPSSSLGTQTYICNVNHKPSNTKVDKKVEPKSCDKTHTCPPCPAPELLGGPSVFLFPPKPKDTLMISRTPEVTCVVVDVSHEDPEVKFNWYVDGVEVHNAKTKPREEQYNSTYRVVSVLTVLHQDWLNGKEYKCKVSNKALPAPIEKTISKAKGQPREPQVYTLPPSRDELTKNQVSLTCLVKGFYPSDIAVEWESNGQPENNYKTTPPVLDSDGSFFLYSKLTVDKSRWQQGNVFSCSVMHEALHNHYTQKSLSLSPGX
light: B4 light
modifications: PNU-159682 linked through ethylenediamine to the C-terminal Gly of the GGGGSLPQTGG tag
B8: hCL1f-LC-G2-PNU (antibody, human IgG1, kappa)
heavy: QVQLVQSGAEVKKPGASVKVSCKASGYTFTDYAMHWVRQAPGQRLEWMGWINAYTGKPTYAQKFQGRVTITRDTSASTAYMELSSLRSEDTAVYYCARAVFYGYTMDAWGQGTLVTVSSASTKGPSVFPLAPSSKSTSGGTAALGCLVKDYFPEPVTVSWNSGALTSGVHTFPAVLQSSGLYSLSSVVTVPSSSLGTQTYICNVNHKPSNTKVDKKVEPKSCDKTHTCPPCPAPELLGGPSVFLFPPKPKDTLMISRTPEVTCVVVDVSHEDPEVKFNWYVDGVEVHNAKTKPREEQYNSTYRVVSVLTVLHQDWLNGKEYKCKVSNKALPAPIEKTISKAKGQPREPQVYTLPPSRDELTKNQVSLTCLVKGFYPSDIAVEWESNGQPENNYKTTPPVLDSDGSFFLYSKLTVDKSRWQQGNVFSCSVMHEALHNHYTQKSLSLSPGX
light: B4 light with F49Y
modifications: PNU-159682 linked through ethylenediamine to the C-terminal Gly of the GGGGSLPQTGG tag
B9: hCL1g-LC-G2-PNU (antibody, human IgG1, kappa)
heavy: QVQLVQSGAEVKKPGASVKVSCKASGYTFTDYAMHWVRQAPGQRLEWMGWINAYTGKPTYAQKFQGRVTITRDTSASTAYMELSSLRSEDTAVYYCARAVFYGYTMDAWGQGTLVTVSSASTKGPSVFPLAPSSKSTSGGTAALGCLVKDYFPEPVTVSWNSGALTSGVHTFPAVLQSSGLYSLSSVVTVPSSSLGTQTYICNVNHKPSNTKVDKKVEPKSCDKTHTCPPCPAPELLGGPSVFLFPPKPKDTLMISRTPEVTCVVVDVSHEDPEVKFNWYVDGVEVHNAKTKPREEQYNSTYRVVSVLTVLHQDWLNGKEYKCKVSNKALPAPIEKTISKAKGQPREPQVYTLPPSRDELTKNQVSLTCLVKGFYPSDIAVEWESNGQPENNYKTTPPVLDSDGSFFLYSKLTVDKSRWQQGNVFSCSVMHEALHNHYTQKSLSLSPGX
light: B4 light with A25T, L33F, F49Y, K52N, N93K
modifications: PNU-159682 linked through ethylenediamine to the C-terminal Gly of the GGGGSLPQTGG tag
B10: hCL1h-LC-G2-PNU (antibody, human IgG1, kappa)
heavy: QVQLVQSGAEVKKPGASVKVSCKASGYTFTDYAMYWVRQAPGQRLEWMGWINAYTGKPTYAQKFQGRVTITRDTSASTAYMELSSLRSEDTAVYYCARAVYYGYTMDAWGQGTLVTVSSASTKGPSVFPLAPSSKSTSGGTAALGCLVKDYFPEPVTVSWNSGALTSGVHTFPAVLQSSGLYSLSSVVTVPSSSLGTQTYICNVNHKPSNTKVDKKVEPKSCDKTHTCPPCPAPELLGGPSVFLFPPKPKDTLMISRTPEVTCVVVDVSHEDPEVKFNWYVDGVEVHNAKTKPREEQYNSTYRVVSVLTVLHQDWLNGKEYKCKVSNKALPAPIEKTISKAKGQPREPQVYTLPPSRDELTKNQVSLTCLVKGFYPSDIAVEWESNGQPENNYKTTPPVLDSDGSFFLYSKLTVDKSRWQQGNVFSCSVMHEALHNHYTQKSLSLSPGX
light: B4 light with F49Y
modifications: PNU-159682 linked through ethylenediamine to the C-terminal Gly of the GGGGSLPQTGG tag
B11: hCL1i-LC-G2-PNU (antibody, human IgG1, kappa)
heavy: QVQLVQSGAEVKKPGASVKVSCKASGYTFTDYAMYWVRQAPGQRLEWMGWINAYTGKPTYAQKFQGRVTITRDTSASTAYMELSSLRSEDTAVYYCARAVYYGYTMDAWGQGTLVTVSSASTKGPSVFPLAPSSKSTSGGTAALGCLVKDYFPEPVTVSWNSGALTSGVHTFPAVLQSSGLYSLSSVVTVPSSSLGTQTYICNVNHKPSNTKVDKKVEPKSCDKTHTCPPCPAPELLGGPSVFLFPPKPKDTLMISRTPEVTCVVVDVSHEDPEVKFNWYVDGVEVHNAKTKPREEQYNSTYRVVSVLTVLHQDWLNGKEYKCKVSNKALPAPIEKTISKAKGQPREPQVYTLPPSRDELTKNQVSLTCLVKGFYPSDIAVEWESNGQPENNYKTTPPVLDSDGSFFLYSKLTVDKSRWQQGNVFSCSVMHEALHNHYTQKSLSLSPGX
light: B4 light
modifications: PNU-159682 linked through ethylenediamine to the C-terminal Gly of the GGGGSLPQTGG tag
B12: hCL1j-LC-G2-PNU (antibody, human IgG1, kappa)
heavy: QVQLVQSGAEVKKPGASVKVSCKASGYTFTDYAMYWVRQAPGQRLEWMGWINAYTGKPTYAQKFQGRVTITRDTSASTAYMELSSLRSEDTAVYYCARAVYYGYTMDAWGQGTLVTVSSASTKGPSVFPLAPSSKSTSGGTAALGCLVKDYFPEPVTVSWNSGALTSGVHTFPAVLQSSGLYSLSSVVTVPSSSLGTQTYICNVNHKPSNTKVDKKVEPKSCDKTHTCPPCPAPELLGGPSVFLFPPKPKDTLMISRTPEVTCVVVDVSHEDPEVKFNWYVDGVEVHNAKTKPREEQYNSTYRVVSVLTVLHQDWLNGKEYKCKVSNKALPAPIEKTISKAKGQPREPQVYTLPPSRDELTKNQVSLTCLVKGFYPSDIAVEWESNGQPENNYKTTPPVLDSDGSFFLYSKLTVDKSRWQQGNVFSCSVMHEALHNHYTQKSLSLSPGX
light: B4 light with A25T, S50A, V51I, N93K
modifications: PNU-159682 linked through ethylenediamine to the C-terminal Gly of the GGGGSLPQTGG tag
B13: hCL1b-LC-G2-PNU (antibody, human IgG1, kappa)
heavy: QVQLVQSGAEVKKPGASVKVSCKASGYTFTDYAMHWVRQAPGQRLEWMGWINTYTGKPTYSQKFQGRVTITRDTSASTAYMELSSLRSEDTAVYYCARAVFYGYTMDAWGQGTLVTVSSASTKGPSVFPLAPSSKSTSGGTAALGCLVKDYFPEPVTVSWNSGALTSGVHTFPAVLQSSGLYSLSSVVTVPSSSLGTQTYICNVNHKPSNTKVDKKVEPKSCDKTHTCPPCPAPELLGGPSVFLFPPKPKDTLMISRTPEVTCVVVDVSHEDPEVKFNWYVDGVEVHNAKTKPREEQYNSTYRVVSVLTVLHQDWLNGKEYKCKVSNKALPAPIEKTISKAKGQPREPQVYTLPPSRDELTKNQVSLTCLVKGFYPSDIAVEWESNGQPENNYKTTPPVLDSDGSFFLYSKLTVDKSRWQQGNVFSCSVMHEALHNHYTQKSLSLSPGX
light: B4 light
modifications: PNU-159682 linked through ethylenediamine to the C-terminal Gly of the GGGGSLPQTGG tag

biological target: T1, human CLDN18.2 (Claudin 18.2) expressed on cells (human); assay: % positive tumor cells divided by % positive healthy stomach cells, flow cytometry, mouse 1
T1 construct: also called huCLDN18.2; hCLDN18.2
Method: (§1) Two Balb/c mice were implanted subcutaneously with 1×10⁶ A549 cells expressing CLDN18.2 in 100 μl of 50% Matrigel and tumors growth was monitored over a few weeks until the tumor reached the desired size between 150-450 mm³. Healthy stomach tissue and tumor tissue was collected for FC analysis. The collected tissues were cut into small pieces and digested with the Miltenyi tumor dissociation kit (MACS Miltenyi Biotec, Germany). Tissue pieces were incubated with dissociation buffer (prepared according to the manufacturer instruction) in 6 well plates for 30 min in 37° C. under permanent gentle rocking motion. Samples were resuspended and strained through a 70 μm cell strainer (Corning, USA) followed by a wash with 20 ml FC buffer (PBS+2% FBS). Cell suspensions were centrifuged (5 min at 400 g for 4° C.) and the supernatants were discarded. If needed, cell suspensions were passed through a strainer and centrifuged repeatedly and pellets resuspended in 5 ml of red blood cell lysis buffer (Biolegend, USA), incubated on ice for 4 min. After incubation, 25 ml of PBS was added, and the suspensions were centrifuged again (5 min at 400 g for 4° C.). Pellets were resuspended in FC buffer (0.5-3 ml based on pellets). Equal number of cells were transferred into 96 well plates and further processed for FC analysis. […]

Question: B1 was tested. Which Ratio tumor/stomach did it give?
Answer: 92.5

biological target: T1, human CLDN18.2 (Claudin 18.2) expressed …; assay: % positive tumor cells divided by % positive healthy stomach cells, flow cytometry, average
Method: as §1

Question: With B1 as the binder, how does the Ratio tumor/stomach read?
Answer: 74.3

biological target: T1, human CLDN18.2 (Claudin 18.2) expressed …; assay: % positive tumor cells divided by % positive healthy stomach cells, flow cytometry, mouse 2
Method: as §1

Question: With B1 as the binder, how does the Ratio tumor/stomach read?
Answer: 50

biological target: T2, human CLDN18.1 (Claudin 18.1) expressed on cells (human, UniProt P56856 1-261); assay: flow cytometry, L11 cells overexpressing huCLDN18.1 (FIG. 4)
T2 construct: whole, on cells; Isoform 1 (lung isoform) of CLDN18; also called huCLDN18.1; hCLDN18.1
T2 sequence (P56856 whole entry, canonical isoform): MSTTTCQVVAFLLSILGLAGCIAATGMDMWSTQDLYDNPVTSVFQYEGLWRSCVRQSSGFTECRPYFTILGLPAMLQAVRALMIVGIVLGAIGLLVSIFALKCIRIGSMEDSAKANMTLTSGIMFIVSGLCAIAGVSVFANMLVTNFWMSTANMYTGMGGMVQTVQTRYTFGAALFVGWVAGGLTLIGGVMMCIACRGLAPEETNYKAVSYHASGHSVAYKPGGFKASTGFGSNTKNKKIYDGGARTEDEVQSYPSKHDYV
Method: The cells were stained on ice for 30 min using the antibodies at 2 μg/ml and, upon washing in PBS/2% FCS, stained with anti-human IgG (Fc gamma-specific) PE goat antibody (eBioscience) as secondary antibody for 30 min on ice.

Question: Does B1 bind?
Answer: no binding (tested: 2 µg/ml)

Question: Does B2 bind?
Answer: no binding (tested: 2 µg/ml)

Question: Does B3 bind?
Answer: no binding (tested: 2 µg/ml)

biological target: T1, human CLDN18.2 (Claudin 18.2) expressed …; assay: cell-based or functional assay

Question: Which “EC50 of in-vitro cytotoxicity, A549-CLDN18.2 cells (head of c2)” value (shortened to “EC50 of in-vitro cytotoxicity”) does the source give for B4 here?
Answer: 4.8 ng/mL

Question: B5 was tested. Which “EC50 of in-vitro cytotoxicity” value did it give?
Answer: 30 ng/mL

Question: For B6, which “EC50 of in-vitro cytotoxicity” value is on record?
Answer: 11.6 ng/mL

Question: B7 was tested. Which “EC50 of in-vitro cytotoxicity” value did it give?
Answer: 4.3 ng/mL

Question: With B8 as the binder, how does the “EC50 of in-vitro cytotoxicity” value read?
Answer: 14 ng/mL

Question: B9 was tested. Which “EC50 of in-vitro cytotoxicity” value did it give?
Answer: 70.7 ng/mL

Question: B10 was tested. Which “EC50 of in-vitro cytotoxicity” value did it give?
Answer: 3.3 ng/mL

Question: How did the “EC50 of in-vitro cytotoxicity” value turn out when B11 was run?
Answer: 3.8 ng/mL

Question: With B12 as the binder, how does the “EC50 of in-vitro cytotoxicity” value read?
Answer: 5.3 ng/mL

Question: Which “EC50 of in-vitro cytotoxicity” value does the source give for B13 here?
Answer: 6.4 ng/mL

— patent US20240100180A1 (SOTIO BIOTECH A S, published 2024)
